The target of assay [1] is T1, MCL-1 (amino acid 1-172 portion) with a His6 tag, MBP and a TEV protease recognition sequence on the N … (UniProt Q07820 1-172).
T1 construct: range 1-172; Expressed in E. coli BL21 (DE3) RIPL, purified on Ni-NTA, dialysed; tags are not reported as removed; Immobilised by amine coupling on a CM5 chip for SPR; A different construct (3xFLAG-tagged, His6/MBP cleaved) was used for panning only; also called target protein; not shown: His6 tag from the pET28a construct; no cleavage is described for this preparation
Nature of the assay: SPR, Biacore T200, 25 C, Mcl-1 amine-coupled on CM5, peptide as analyte, equilibrium analysis; grade B = KD of 50 µmol/L or more. As to the method:
A buffer obtained by adding dimethylformamide (DMF) or dimethylsulfoxide (DMSO) to a final concentration of 1 vol % to HBS-EP+(manufactured by GE Healthcare Inc.) was used as a running buffer. Mcl-1 was immobilized on a Biacore Sensor Chip Series S Sensor Chip CM5 (manufactured by GE Healthcare Inc.) using an Amine Coupling Kit (manufactured by GE Healthcare Inc.). In order to measure the dissociation constant (KD), each synthetic peptide was added at multiple concentrations to obtain a sensorgram of binding to immobilized Mcl-1.
The analysis of the obtained sensorgram was carried out using T200 evaluation software (manufactured by GE Healthcare Inc.). Solvent correction to DMF or DMSO was carried out, and then the KD was determined by equilibrium value analysis using a sensorgram obtained by subtracting the sensorgram to a flow cell in which Mcl-1 is not immobilized.
For orientation: SPR reads the build-up and loss of mass on a sensor chip optically.

In assay [2] the target is T1, MCL-1 (amino acid 1-172 portion) with a …. Put plainly: SPR, Biacore T200, Mcl-1 immobilised on CM5, peptide as analyte, equilibrium analysis, as for Table 51; grade A = KD of less than 50 µmol/L.

This note sets out measurements from US20200040039A1 (FUJIFILM, published 2020).

Positions of bridges follow the written chain, without caps; N, C: chain ends. Non-standard residues stand in square brackets, D forms with d. thiazoline = not defined here

T1 sequence (Q07820 1-172): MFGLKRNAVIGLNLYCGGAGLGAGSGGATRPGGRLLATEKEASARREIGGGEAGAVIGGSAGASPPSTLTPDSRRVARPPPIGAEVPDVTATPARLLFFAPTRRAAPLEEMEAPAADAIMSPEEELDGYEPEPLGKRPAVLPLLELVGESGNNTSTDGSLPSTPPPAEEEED

B1: Cyclic peptide a-5-3 (peptide)
peptide: CFALLWPQFLPLAF[3‑(6-cyanopyridin-2-yl)Ala]-NH2
modifications: bridge N-15 via thiazoline; reading uncertain
notes: MS 1821.3 (M+H); Structure itself only in a drawing
In the case of B1, in assay [1], the equilibrium dissociation constant (Kd) is ≥ 50 µM.

B2: Cyclic peptide a-5-1 (peptide)
peptide: CRSWACLWPAFLWY[3‑(6-cyanopyridin-2-yl)Ala]-NH2
modifications: bridge N-15 via thiazoline; cysteine pairing not given here; reading uncertain
notes: MS 1957.6 (M+H); Structure itself only in a drawing
Regarding B2, the equilibrium dissociation constant (Kd) in assay [1] is ≥ 50 µM.

B3: Cyclic peptide a-6-1 (peptide)
peptide: CEYCDPTFWPLFRR[3‑(5-cyanothiophen-3-yl)alanine]-NH2
modifications: bridge N-15 via thiazoline; cysteine pairing not given here; reading uncertain
notes: MS 1993.3 (M+H); Structure itself only in a drawing
Take B3: in assay [2], the Kd is < 50 µM.

As usually defined, the Kd is the equilibrium constant for the complex coming apart.
